# In US9644034B2, “Anti-RSPO2 antibodies and uses thereof” (OncoMed Pharmaceuticals, Inc., priority 2011, dated 2017):
# Assays:
# human RSPO1 [1] = target: T1, human RSPO1 (Homo sapiens, UniProt Q2MKA7); experiment: FACS binding of 89M5 and humanized 89M5 to HEK293 cells expressing FLAG-RSPO1furin-CD4TM-GFP; details: five-fold serial dilutions
# T1 construct: followed by the two furin-like domains of RSPO1 (aa 34-135); expressed in transfected cells; host or cells: HEK-293
# Procedure: HEK293 cells were transiently transfected with an expression vector encoding FLAG-RSPO1furin-CD4TM-GFP. As described in Example 5, FLAG-RSPO1furin-CD4TM-GFP is a chimeric fusion protein enabling cell surface expression of the N-terminal furin-like domains of human RSPO1. FLAG-RSPO1 furin-CD4TM-GFP transfected cells were incubated in the presence of anti-RSPO1 antibody 89M5 or humanized anti-RSPO1 antibody h89M5-H2L2. Five-fold serial dilutions of each antibody were examined for their ability to bind to the RSPO1 expressing cells. The cells were stained with Phycoerythrin conjugated anti-IgG to reveal bound antibody. The cells were analyzed on a FACSCalibur instrument (BD Biosciences, San Jose, Calif.) and the data was processed using FlowJo software.
# human RSPO2 = target: T2, human RSPO2 (Homo sapiens, UniProt Q6UXX9); experiment: FACS binding of 130M23 and humanized 130M23 to HEK293 cells expressing FLAG-RSPO2furin-CD4TM-GFP; details: five-fold serial dilutions
# T2 construct: followed by the furin-like domains of RSPO2 (aa 31-146); expressed in transfected cells; host or cells: HEK-293
# T2 sequence (Q6UXX9 31-146): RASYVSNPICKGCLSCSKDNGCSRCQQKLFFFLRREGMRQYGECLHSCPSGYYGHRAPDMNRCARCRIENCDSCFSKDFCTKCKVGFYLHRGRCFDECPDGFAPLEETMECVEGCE
# Procedure: HEK293 cells were transiently transfected with an expression vector encoding FLAG-RSPO2furin-CD4TM-GFP. As described in Example 11, FLAG-RSPO2furin-CD4TM-GFP is a chimeric fusion protein enabling cell surface expression of the N-terminal furin-like domains of human RSPO2. FLAG-RSPO2furin-CD4TM-GFP transfected cells were incubated in the presence of anti-RSPO2 antibody 130M23 or humanized anti-RSPO2 antibody […]. Five-fold serial dilutions of each antibody were examined for their ability to bind to the RSPO2 expressing cells. The cells were stained with Phycoerythrin conjugated anti-IgG to reveal bound antibody. The cells were analyzed on a FACSCalibur instrument (BD Biosciences, San Jose, Calif.) and the data was processed using FlowJo software.
# binding of RSPO1 to LGR5 = target: T3, binding of RSPO1 to LGR5 (Homo sapiens, UniProt Q2MKA7); experiment: FACS: blocking of soluble RSPO1-Fc binding to LGR5 on HEK-293 cells; details: RSPO1-Fc 10 μg/ml, antibodies 10 μg/ml
# T3 construct: full-length human RSPO1, RSPO2, RSPO3 and RSPO4 were ligated in-frame to a human Fc region; made in house; host or cells: RSPO1-Fc: insect cells (baculovirus); LGR5 construct: transiently transfected HEK-293
# T3 sequence (Q2MKA7 21-263): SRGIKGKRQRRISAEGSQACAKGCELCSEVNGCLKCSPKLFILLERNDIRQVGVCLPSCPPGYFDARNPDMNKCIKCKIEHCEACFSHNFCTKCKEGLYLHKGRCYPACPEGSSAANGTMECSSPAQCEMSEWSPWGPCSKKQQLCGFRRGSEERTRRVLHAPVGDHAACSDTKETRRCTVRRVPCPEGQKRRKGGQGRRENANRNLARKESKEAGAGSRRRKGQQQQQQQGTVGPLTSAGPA
# Procedure: HEK-293 cells were transiently transfected with the FLAG-LGR5-CD4TM-GFP construct (previously described in Example 2). After 48 hours, transfected cells were suspended in ice cold PBS containing 2% FBS and heparin and incubated on ice in the presence of RSPO1-Fc protein (10 μg/ml) and antibodies 89M2, 89M4, 89M5, 89M7, 89M19 or 89M25 (10 μg/ml). A second incubation with 100 μl PE-conjugated anti-human Fc secondary antibody was performed to detect cells bound by the RSPO1-Fc fusion protein. The cells were analyzed on a FACSCalibur instrument (BD Biosciences, San Jose, Calif.) and the data was processed using FlowJo software.
# [2] = system: PN31 pancreatic tumor cells; experiment: PN31 pancreatic tumor xenograft growth in NOD/SCID mice; format: in vivo; details: antibodies 15 mg/kg once a week, intraperitoneal
# Procedure: Dissociated PN31 pancreatic tumor cells (1×10^5cells) were injected subcutaneously into the flanks of 6-8 week old NOD/SCID mice. Tumors were allowed to grow for 61 days until they reached an average volume of 120 mm^3. The mice were randomized (n=10 per group) and treated with anti-RSPO1 antibody 89M5, anti-RSPO2 antibody 130M23, gemcitabine, a combination of 89M5 and gemcitabine, a combination of 130M23 and gemcitabine, or control antibody 1B7.11. Antibodies were dosed at 15 mg/kg once a week, and gemcitabine was dosed at […] once a week. Administration of the antibodies and gemcitabine was performed via injection into the intraperitoneal cavity. Tumor growth was monitored and tumor volumes were measured with electronic calipers at specific time points. Data are expressed as mean±S.E.M.
# [3] = system: RSPO1-induced β-catenin signaling; experiment: TOPflash luciferase assay in HEK-293 cells, Wnt3a plus human RSPO1; format: cell-based; details: Wnt3a 5 ng/ml, RSPO1 10 ng/ml; antibodies 10 to 0.625 μg/ml
# Procedure: HEK-293 cells were transfected with a 6×TCF-luciferase reporter vector (TOPflash, Millipore, Billerica, Mass.). After 24-48 hrs, the transfected HEK-293 cells were incubated with a combination of Wnt3a (5 ng/ml) and human RSPO1 (10 ng/ml, R&D BioSystems) in the presence of anti-RSPO1 antibodies 89M2, 89M4, 89M5, 89M7, 89M19, and 89M25, or 2 irrelevant control antibodies 254M14 and 254M26 (2-fold dilutions at 10 μg/ml to 0.625 μg/ml). The cells were incubated for 16 hours and luciferase activity was measured using Steady-Glo® Luciferase Assay System according to the manufacturer's instructions (Promega, Madison, Wis.).
# OV19 ovarian tumor cells = experiment: OV19 ovarian tumor xenograft growth in NOD/SCID mice; format: in vivo; details: day 35, vs control antibody; antibodies 15 mg/kg once a week, intraperitoneal
# Procedure: Dissociated OV19 ovarian tumor cells (1×10^5cells) were injected in the mammary fat pads of 6-8 week old NOD/SCID mice. Tumors were allowed to grow for 45 days until they reached an average volume of 134 mm^3. The mice were randomized (n=10 per group) and treated with anti-RSPO1 antibody 89M5, 89M25, taxol, a combination of 89M5 and taxol, a combination of 89M25 and taxol, or control antibody 1B7.11. Antibodies were dosed at 15 mg/kg once a week, and taxol was dosed at […] once a week. Administration of the antibodies and taxol was performed via injection into the intraperitoneal cavity. Tumor growth was monitored and tumor volumes were measured with electronic calipers at the indicated time points. Data are expressed as mean±S.E.M.
# human RSPO1 [4] = target: T1, human RSPO1; experiment: FACS screening of hybridoma supernatants on HEK-293 cells expressing FLAG-RSPO1furin-CD4TM-GFP; format: binding
# Source text: Antibodies were generated against recombinant human RSPO1 protein amino acids 31-263 (R&D Systems, Minneapolis, Minn.). Mice (n=3) were immunized with RSPO1 protein using standard techniques. Sera from individual mice were screened against RSPO1 approximately 70 days after initial immunization using FACS analysis. The animal with the highest antibody titer was selected for final antigen boost after which spleen cells were isolated for hybridoma production. SP2/0 cells were used as fusion partners for the mouse spleen cells. Hybridoma cells were plated at 1 cell per well in 96 well plates, and the supernatants were screened against human RSPO1 by FACS analysis.
# For FACS screening of anti-RSPO1 antibodies a chimeric fusion protein enabling cell surface expression of the N-terminal furin-like domains of human RSPO1 was constructed.
# HEK-293 cells were transfected with FLAG-RSPOlfurin-CD4TM-GFP. After 48 hours, transfected cells were suspended in ice cold PBS containing 2% FBS and heparin and incubated on ice in the presence of 50 μl of hybridoma supernatants for 30 minutes. A second incubation with 100 μl PE-conjugated […] secondary antibody was performed to detect cells bound by antibody. Cells were incubated with an anti-FLAG antibody (Sigma-Aldrich, St. Louis, Mo.) as a positive control and an anti-PE antibody as a negative control. The cells were analyzed on a FACSCalibur instrument (BD Biosciences, San Jose, Calif.) and the data was processed using FlowJo software.
# T1 sequence (Q2MKA7 34-135): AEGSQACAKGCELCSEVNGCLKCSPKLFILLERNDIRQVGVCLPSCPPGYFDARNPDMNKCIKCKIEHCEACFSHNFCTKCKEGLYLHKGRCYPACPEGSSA
Molecule,binding to human RSPO1 (FACS) (human RSPO1 [1]),binding to human RSPO2 (FACS) (human RSPO2),blocking of binding of RSPO1 to LGR5 (binding of RSPO1 to LGR5),effect on tumor growth as single agents [2],blocking of RSPO1-induced β-catenin signaling [3],reduction in tumor growth (OV19 ovarian tumor cells) [%],binding to RSPO1 (FACS) (human RSPO1 [4])
"h89M5-H2L2: humanized anti-RSPO1 antibody; heavy chain SEQ ID NO:68, light chain SEQ ID NO:69 (antibody, h89M5-H2L2 Heavy chain amino acid sequence; h89M5-H2L2 Light chain amino acid sequence) heavy: QVQLVQSGAEVKKPGASVKVSCKTSGYTFTGYTMHWVRQAPGQRLEWMGGINPNNGGTTYNQNFKGRVTITRDTSASTAYMELSSLRSEDTAVYYCARKEFSDGYYFFAYWGQGTLVTVSSASTKGPSVFPLAPCSRSTSESTAALGCLVKDYFPEPVTVSWNSGALTSGVHTFPAVLQSSGLYSLSSVVTVPSSNFGTQTYTCNVDHKPSNTKVDKTVERKCCVECPPCPAPPVAGPSVFLFPPKPKDTLMISRTPEVTCVVVDVSHEDPEVQFNWYVDGVEVHNAKTKPREEQFNSTFRVVSVLTVVHQDWLNGKEYKCKVSNKGLPAPIEKTISKTKGQPREPQVYTLPPSREEMTKNQVSLTCLVKGFYPSDIAVEWESNGQPENNYKTTPPMLDSDGSFFLYSKLTVDKSRWQQGNVFSCSVMHEALHNHYTQKSLSLSPGK light: DIQMTQSPSSLSASVGDRVTITCKASQDVIFAVAWYQQKPGKAPKLLIYWASTRHTGVPSRFSGSGSGTDYTLTISSLQPEDFATYYCQQHYSTPWTFGGGTKVEIKRTVAAPSVFIFPPSDEQLKSGTASVVCLLNNFYPREAKVQWKVDNALQSGNSQESVTEQDSKDSTYSLSNTLTLSKADYEKHKVYACEVTHQGLSSPVTKSFNRGEC",bind,–,–,–,–,–,–
"h130M23-H1L2: humanized anti-RSPO2 antibody; heavy chain SEQ ID NO:70, light chain SEQ ID NO:71 (antibody, h130M23-H1L2 Heavy chain amino acid sequence; h130M23-H1L2 Light chain amino acid sequence) heavy: EVQLVESGGGLVKPGGSLRLSCAASGFTFSSYAMSWVRQAPGKGLEWVSSISSGGSTYYPDSVKGRFTISRDNAKNSLYLQMNSLRAEDTAVYYCARGGDPGVYNGDYEDAMDYWGQGTTVTVSSASTKGPSVFPLAPCSRSTSESTAALGCLVKDYFPEPVTVSWNSGALTSGVHTFPAVLQSSGLYSLSSVVTVPSSNFGTQTYTCNVDHKPSNTKVDKTVERKCCVECPPCPAPPVAGPSVFLFPPKPKDTLMISRTPEVTCVVVDVSHEDPEVQFNWYVDGVEVHNAKTKPREEQFNSTFRVVSVLTVVHQDWLNGKEYKCKVSNKGLPAPIEKTISKTKGQPREPQVYTLPPSREEMTKNQVSLTCLVKGFYPSDIAVEWESNGQPENNYKTTPPMLDSDGSFFLYSKLTVDKSRWQQGNVFSCSVMHEALHNHYTQKSLSLSPGK light: DIQMTQSPSSLSASVGDRVTITCKASQDVSSAVAWYQQKPGKAPKLLIYWASTRHTGVPSRFSGSGSGTDFTLTISSVQAEDFATYYCQQHYSTPWTFGQGTKVEIKRTVAAPSVFIFPPSDEQLKSGTASVVCLLNNFYPREAKVQWKVDNALQSGNSQESVTEQDSKDSTYSLSNTLTLSKADYEKHKVYACEVTHQGLSSPVTKSFNRGEC",–,bind,–,–,–,–,–
"89M5: anti-RSPO1 monoclonal antibody, hybridoma ATCC PTA-11970; variable regions SEQ ID NO:10 and SEQ ID NO:11 (antibody, V domains shown, 89M5 Heavy chain variable region; 89M5 Light chain variable region) VH: EVQLQQSGPELVKPGASVKISCKTSGYTFTGYTMHWVRQSHGKTLEWIGGINPNNGGTTYNQNFKGKATLTVEKSSTTAYLELRSLTSEDSALYYCARKEFSDGYYFFAYWGQGTLVTVSA VL: DIVMTQSHKFMSTSVGDRVNITCKASQDVIFAVAWYQQKPGQSPKLLIYWASTRHTGVPDRFTGSVSGTDYTLTISSVQAEDLALYYCQQHYSTPWTFGGGTKLEIK",bind,–,blocked,only a minimal effect,blocked,40,bound
"89M25: anti-RSPO1 monoclonal antibody; same heavy and light chain variable regions as 89M5 (antibody, V domains shown) VH: EVQLQQSGPELVKPGASVKISCKTSGYTFTGYTMHWVRQSHGKTLEWIGGINPNNGGTTYNQNFKGKATLTVEKSSTTAYLELRSLTSEDSALYYCARKEFSDGYYFFAYWGQGTLVTVSA VL: DIVMTQSHKFMSTSVGDRVNITCKASQDVIFAVAWYQQKPGQSPKLLIYWASTRHTGVPDRFTGSVSGTDYTLTISSVQAEDLALYYCQQHYSTPWTFGGGTKLEIK",–,–,blocked,–,blocked,25,bound
